The results in this text go back to US20210148907A1 (NATIONAL GUARD HEALTH AFFAIRS, published 2021).

Assay [1] has as its target T1, human serum albumin (AffiGel 10-bound, HSA Column) (human, UniProt P02768 25-609).
T1 construct: also called HSA control column
Kind of assay: AffiGel-HSA control column loaded with the HeLa S100 >800 kDa fraction; tandem mass spectrometry of the eluate.

Assay [2] deals with Death-associated protein 3 (DAP3) (human, UniProt P51398 22-398). In words: co-immunoprecipitation with affi-gel-bound anti-Flag antibody from transfected HeLa cells; Western blot with anti-DAP3. On the procedure:
Briefly, equal numbers of HeLa cells were transfected with a control vector or Flag-epitope tagged N-terminus domain of BCL10 (aa. 1-97), C-terminus domain (aa. 104-233) or the full length BCL10. After 48 h of incubation, equal extracts (200 μg) from the transfected cells were incubated with a 50 μL of affi-gel-bound anti-Flag antibody. […] The expression of the Flag-BCL10 protein variants in the extracts (IB) was also assessed. β-actin was used as a loading control to ensure equal protein loading.

Assay [3] concerns the target T1, human serum albumin (AffiGel 10-bound, …). In words: Western blot of the eluate of the HSA control column with specific primary antibodies.

B1: Phosphatase of Regenerative Liver (PRL1/protein tyrosine phosphatase PTP4A1) (enzyme)
chain: MARMNRPAPVEVTYKNMRFLITHNPTNATLNKFIEELKKYGVTTIVRVCEATYDTTLVEKEGIHVLDWPFDDGAPPSNQIVDDWLSLVKIKFREEPGCCIAVHCVAGLGRAPVLVALALIEGGMKYEDAVQFIRQKRRGAFNSKQLLYLEKYRPKMRLRFKDSNGHRNNC
notes: Endogenous protein of HeLa cells; also called PRL1/PTP4A1
As to B1, the binding result in assay [1] is on record as “no binding”.

B2: Flag-epitope tagged N-terminus domain of BCL10 (aa. 1-97) (other, not shown: small tags and cut ends)
chain: MEPTAPSLTEEDLTEVKKDALENLRVYLCEKIIAERHFDHLRAKKILSREDTEEISCRTSSRKRAGKLLDYLQENPKGLDTLVESIRREKTQNFLIQ
notes: Expressed in transfected HeLa cells; also called amino terminal CARD domain (aa 1-97); CARD (N-terminus) domain of BCL10
For B2, the binding result in assay [2] is “no binding”.

B3: Insulin-like growth factor II (IGF-II) messenger RNA (mRNA)-binding protein-3 (IMP3) (other, UniProt O00425 1-579, looked up)
chain: MNKLYIGNLSENAAPSDLESIFKDAKIPVSGPFLVKTGYAFVDCPDESWALKAIEALSGKIELHGKPIEVEHSVPKRQRIRKLQIRNIPPHLQWEVLDSLLVQYGVVESCEQVNTDSETAVVNVTYSSKDQARQALDKLNGFQLENFTLKVAYIPDEMAAQQNPLQQPRGRRGLGQRGSSRQGSPGSVSKQKPCDLPLRLLVPTQFVGAIIGKEGATIRNITKQTQSKIDVHRKENAGAAEKSITILSTPEGTSAACKSILEIMHKEAQDIKFTEEIPLKILAHNNFVGRLIGKEGRNLKKIEQDTDTKITISPLQELTLYNPERTITVKGNVETCAKAEEEIMKKIRESYENDIASMNLQAHLIPGLNLNALGLFPPTSGMPPPTSGPPSAMTPPYPQFEQSETETVHLFIPALSVGAIIGKQGQHIKQLSRFAGASIKIAPAEAPDAKVRMVIITGPPEAQFKAQGRIYGKIKEENFVSPKEEVKLEAHIRVPSFAAGRVIGKGGKTVNELQNLSSAEVVVPRDQTPDENDQVVVKITGHFYACQVAQRKIQEILTQVKQHQQQKALQSGPPQSRRK
notes: Endogenous protein of HeLa cells; It describes the protein as IGF2BP3 with a mass of 63705 Da and also lists NP_006538; also called IMAP3; IGF2BP3
For B3, in assay [3], the binding result is “no binding”.
